Positions count from the first letter of the chain named.
Assays:
Assay in all cases: EMSA
Details in all cases: 10 mM Tris pH 8, 150 mM KCl, 500 nM EDTA, 0.1% Triton X-100, 12.5% glycerol, 1 mM DTT, 1 ug poly(dI-dC), 4 C, 30 min
[1] = molecular target: T1, HetR S127A S127A (Nostoc PCC 7120) (UniProt P27709)
T1 sequence: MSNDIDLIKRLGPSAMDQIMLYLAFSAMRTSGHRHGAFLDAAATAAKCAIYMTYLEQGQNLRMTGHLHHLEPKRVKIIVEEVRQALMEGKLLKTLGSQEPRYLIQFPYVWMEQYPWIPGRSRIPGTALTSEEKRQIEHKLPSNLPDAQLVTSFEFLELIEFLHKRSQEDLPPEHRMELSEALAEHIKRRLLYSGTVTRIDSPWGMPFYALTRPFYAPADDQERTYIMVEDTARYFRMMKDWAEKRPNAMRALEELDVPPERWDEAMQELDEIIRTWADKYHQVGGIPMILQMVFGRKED

[2] = molecular target: T2, HetR S130A S130A (Nostoc PCC 7120) (UniProt P27709)
T2 sequence: T1 sequence with A127S, S130A

[3] = molecular target: T3, HetR S130D S130D (Nostoc PCC 7120) (UniProt P27709)
T3 sequence: T1 sequence with A127S, S130D

[4] = molecular target: T4, HetR S179A S179A (Nostoc PCC 7120) (UniProt P27709)
T4 sequence: T1 sequence with A127S, S179A

TGAGTTATACGCTATATCAATGGGGATTTTGAGCATTTTCTACTAGGTAATGAGGGGTTAGACCCCTCGCCTACTGTGCATTTGAGACTTTAAACCTACTAAGAGAATTTACCACTAAAT (double strand) [hetP promoter]
binding [1]: binds | binding [2]: binds | binding [3]: binds | binding [4]: no binding
